Target: PsFcγRIIa (recombinant soluble human FcγRIIa protein produced in baculovirus-infected Sf-21 cells) (human) (UniProt P12318)
Test: SPR competition; monomeric IgG (0 to 2 mg/ml) premixed with 50 ug/ml PsFcγRIIa, passed over immobilised IgG1

molar excess giving complete inhibition (fold molar excess): 6
Substance: monomeric IgG (Sandaglobulin, available from Sandoz) (antibody)
